As a reminder, the Kd is the free concentration of one partner at which half of the binding sites on the other are occupied at equilibrium, for simple one-to-one binding. In general, kon refers to the second-order rate constant of association. Broadly, the IC50 is the concentration that inhibits the measured activity by half.

In assay [1] the target is T1, Human PDGF-BB (human, UniProt P01127 82-190).
T1 construct: Dimer of two B chains; also called hPDGF-BB; huPDGF-BB
Briefly: Biacore SPR, antibody captured by anti-human Fc, PDGF-BB as analyte. Here is the method: Unreacted moieties on the biosensor surface were blocked with ethanolamine. For kinetic analysis, rate equations derived from the 1:1 Langmuir binding model were fitted simultaneously to multiple antigen injections (using global fit analysis) with the use of Scrubber 2 (BioLogic Software), Biacore Biaevaluation 4.0.1 software or Biacore T100 Evaluation software. Purified antibodies or DVD-Ig molecules were diluted in running buffer for capture across goat anti-human Fc reaction surfaces. Antibodies or DVD-Ig molecules to be captured as a ligand (1 μg/ml) were injected over reaction matrices at a flow rate of 10 μl/minute. During the assay, all measurements were referenced against the capture surface alone (i.e., with no captured antibody or DVD-Ig molecule). […] The equilibrium dissociation constant KD (M) of the reaction between antibodies and the target antigen was then calculated from the kinetic rate constants by the following formula: KD=Koff/Kₒₙ. Binding was recorded as a function of time and kinetic rate constants were calculated. In this assay, on-rates as fast as 10⁶M⁻¹s⁻¹ and off-rates as slow as 10⁻⁶ s⁻¹ could be measured. […]

Assay [2] concerns the target T1, Human PDGF-BB. Nature of the assay: cell-based or functional assay.
Target sequence in this assay (P01127 82-190 limits assumed): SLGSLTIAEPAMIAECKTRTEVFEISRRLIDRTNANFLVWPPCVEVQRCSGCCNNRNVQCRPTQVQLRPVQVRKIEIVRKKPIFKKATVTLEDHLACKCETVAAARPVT
Assay [3] deals with T2, Cynomolgus monkey PDGF-BB (cynomolgus monkey, UniProt P01127 82-190 (human entry), limits assumed).
T2 chain: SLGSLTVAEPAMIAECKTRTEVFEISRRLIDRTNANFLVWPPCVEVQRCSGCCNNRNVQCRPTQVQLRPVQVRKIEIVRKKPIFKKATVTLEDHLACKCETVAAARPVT
Nature of the assay: cell-based or functional assay.

Assay [4] addresses T1, Human PDGF-BB. Briefly: competition ELISA: antibody pre-incubated with hPDGF-BB-biotin, binding to coated hPDGF-Rβ-Fc. Here is the method: Plates were then washed four times with wash buffer (TBS, 0.05% Tween-20) and blocked with Superblock blocking buffer (Thermo Scientific, cat#37535). During the blocking step, supernatants, antibodies, benchmark compounds or DVD-Ig were diluted in assay diluent (10% Superblock containing 0.05% surfactamps) and an eight point titration of each sample molecule was performed. […] Following incubation, plates were washed four times with wash buffer. Detection reagent Streptavidin-polyHRP-40 (Fitzgerald, cat#65r-s104phrp) was diluted in assay diluent and added to plates (50 μL) for 45 minutes at 25° C. with shaking. Plates were washed four times with wash buffer and developed with the addition of Enhanced K-blue TMB substrate (Neogen, cat#308177). The reaction was stopped with 2N sulfuric acid (VWR, cat# BDH3500-1) and the absorbance was read at 450 nm-570 nm. […] Data was analyzed using Softmax Pro 4.8 software and IC₅₀ values calculated using a sigmoidal dose response (variable slope) fit in GraphPad Prism 5.
Potency was evaluated in both cell-based and ELISA formats.
A general note: ELISA stands for enzyme-linked immunosorbent assay.
Target sequence in this assay (P01127 82-190 limits assumed): as the sequence (P01127 82-190 limits assumed) above

Assay [5] deals with recombinant human PDGF-BB (human, UniProt P01127 82-190, biotin-labelled in the binding and competition ELISAs (sites not given)). Nature of the assay: cell-based or functional assay.
recombinant human PDGF-BB, sequence (P01127 82-190 limits assumed): as the sequence (P01127 82-190 limits assumed) above

B1: CL-33812-IgG (antibody, V domains shown)
VH: EVTLRESGPALVKPTQTLTLTCTFSGFSLSTYGMGVGWIRQPPGKALEWLANIWWDDDKYYNPSLKNRLTISKDTSKNQVVLTMTNMDPVDTATYYCARIESNPWKYSFDYWGQGTMVTVSS
VL: EIVLTQSPGTLSLSPGERATLSCERSSGDIWQSYVSWYQQKPGQAPRLVIYSDDQRASGIPDRFSGSGSGTDFTLTISRLEPEDFAVYYCQSYGINIDVVFGGGTKVEIK
With B1, in the assay with Human PDGF-BB [1], the affinity, expressed as Kd, was 0.3 pM and the kon was found to be 6.3e+07 M⁻¹ s⁻¹. Also, in the assay with Human PDGF-BB [2], the “hPDGF-BB NIH-3T3 Proliferation IC50” value worked out at 33 pM. The “cynoPDGF-BB NIH-3T3 Proliferation IC50” value in assay [3] came to 28 pM. In the assay with Human PDGF-BB [4], the IC50 was determined as 43 pM.

B2: CL-33803-IgG (antibody, V domains shown)
VH: EVTLRESGPALVKPTQTLTLTCTFSGFSLSTYGMGVGWIRQPPGKALEWLANIWWDDDKYYNPSLKNRLTISKDTSKNQVVLTMTNMDPVDTATYYCARIESLPTSYSFDYWGQGTMVTVSS
VL: EIVLTQSPGTLSLSPGERATLSCERSSGDIWDTYVSWYQQKPGQAPRLLIYADDQRPSGIPDRFSGSGSGTDFTLTISRLEPEDFAVYYCQSYDIIIDIVFGGGTKVEIK
Turning to B2, in the assay with Human PDGF-BB [1], the Kd was no more than 0.16 pM and the kon is no less than 9e+07 M⁻¹ s⁻¹. Besides, the “hPDGF-BB NIH-3T3 Proliferation IC50” value with Human PDGF-BB [2] is 24 pM. For the same molecule, the “cynoPDGF-BB NIH-3T3 Proliferation IC50” value in assay [3] stood at 18 pM. In addition, the IC50 with Human PDGF-BB [4] was 44 pM.

B3: CL-33820-IgG (antibody, V domains shown)
VH: EVTLRESGPALVKPTQTLTLTCTFSGFSLSTYGMGVGWIRQPPGKALEWLANIWWDDDKYYNPSLKNRLTISKDTSKNQVVLTMTNMDPVDTATYYCARIESSFTSYSFDYWGQGTMVTVSS
VL: EIVLTQSPGTLSLSPGERATLSCKRSSGSIYDTYVSWYQQKPGQAPRLVIYSDDQRPSGIPDRFSGSGSGTDFTLTISRLEPEDFAVYYCQSYDLTIDITFGGGTKVEIK
In the assay with Human PDGF-BB [1], B3 came in with a Kd of no more than 0.16 pM and a kon of no less than 9.8e+07 M⁻¹ s⁻¹. Also, the “hPDGF-BB NIH-3T3 Proliferation IC50” value with Human PDGF-BB [2] turned out to be 17 pM. Further, the “cynoPDGF-BB NIH-3T3 Proliferation IC50” value in assay [3] came out at 13 pM. Further, the IC50 in the assay with Human PDGF-BB [4] amounted to 66 pM.

B4: CL-33805-IgG (antibody, V domains shown)
VH: EVTLRESGPALVKPTQTLTLTCTFSGFSLSTYGMGVGWIRQPPGKALEWLANIWWDDDKYYNPSLKNRLTISKDTSKNQVVLTMTNMDPVDTATYYCARIESHWWSYAFDYWGQGTMVTVSS
VL: EIVLTQSPGTLSLSPGERATLSCERSSGSNYDTYVSWYQQKPGQAPRLLIYADDLRASGIPDRFSGSGSGTDFTLTISRLEPEDFAVYYCQSYGIETDIVFGGGTKVEIK
Regarding B4, in the assay with Human PDGF-BB [1], the equilibrium dissociation constant (Kd) turned out to be 0.21 pM and the kon worked out at 6.8e+07 M⁻¹ s⁻¹. In addition, the “hPDGF-BB NIH-3T3 Proliferation IC50” value with Human PDGF-BB [2] is 39 pM. In addition, the “cynoPDGF-BB NIH-3T3 Proliferation IC50” value in assay [3] stood at 18 pM. The molecule further had an IC50 with Human PDGF-BB [4] of 63 pM.

B5: CL-33701-IgG (antibody, V domains shown)
VH: EVTLRESGPALVKPTQTLTLTCTFSGFSLSTYGMGVGWIRQPPGKALEWLANIWWDDDKYYNPSLKNRLTISKDTSKNQVVLTMTNMDPVDTATYYCARIESLGTSYSFDYWGQGTMVTVSS
VL: EIVLTQSPGTLSLSPGERATLSCERSSGDIWDYYVSWYQQKPGQAPRLVIYADDQRPSGIPDRFSGSGSGTDFTLTISRLEPEDFAVYYCQSYDLFIDVTFGGGTKVEIK
In the case of B5, in the assay with Human PDGF-BB [1], the Kd amounted to 0.24 pM and the kon is 7.3e+07 M⁻¹ s⁻¹. The “hPDGF-BB NIH-3T3 Proliferation IC50” value with Human PDGF-BB [2] amounted to 56 pM. Moreover, the “cynoPDGF-BB NIH-3T3 Proliferation IC50” value in assay [3] was 12 pM. In the assay with Human PDGF-BB [4], this molecule had an IC50 of 59 pM.

B6: CL-33855-IgG (antibody, V domains shown)
VH: EVTLRESGPALVKPTQTLTLTCTFSGFSLSTYGMGVGWIRQPPGKALEWLANIWWDDDKYYNPSLKNRLTISKDTSKNQVVLTMTNMDPVDTATYYCARIETFGPKYSFDYWGQGTMVTVSS
VL: EIVLTQSPGTLSLSPGERATLSCRASSGSIWYSFVSWYQQKPGQAPRLLIYADDQRASGIPDRFSGSGSGTDFTLTISRLEPEDFAVYYCQSYGINIDVVFGGGTKVEIK
In the assay with Human PDGF-BB [1], B6 gave a dissociation constant Kd of no more than 0.05 pM and a kon of 2e+07 M⁻¹ s⁻¹. In the assay with Human PDGF-BB [2], the “hPDGF-BB NIH-3T3 Proliferation IC50” value came to 37 pM. In addition, the “cynoPDGF-BB NIH-3T3 Proliferation IC50” value in assay [3] was determined as 19 pM. This molecule also returned a half-maximal inhibitory concentration (IC50) with Human PDGF-BB [4] of 162 pM.

B7: chBDI-1E1 half body (antibody, V domains shown)
VH: EVKLQQSGDELVRPGASVKMSCKASGYTFTDYVMHWVKQSPGQGLEWIGTIIPLIDTTSYNQKFKGKATLTADKSSNTAYMELSRLTSEDSAVYYCARTSPYYYSSYDVMDAWGQGASVTVSS
VL: NIQLTQSPSLLSASVGDRVTLSCKGSQNINNYLAWYQQKLGEAPKLLIYKTNNLQTGIPSRFSGCGSGTDYTLTISSLHSEDLATYYCYQYDNGYTFGAGTKLELK
For the molecule B7, in assay [5], the “huPDGF-BB Neutralization Potency (nM) in NIH-3T3 Cells” value (shortened to “huPDGF-BB Neutralization Potency (nM)”) was greater than 10 nM.

B8: chBDI-9E8 half-body (antibody, V domains shown)
VH: QVTLKESGPGILQPSQTLSLTCTFSGFSLSTYGMGVGWIRQPSGKGLEWLANIWWDDDKYYNPSLKNRLTISKDTSNNQAFLKITNVDTADTATYYCARIESIGTTYSFDYWGQGVMVTVSS
VL: QFTLTQPKSVSGSLRSTITIPCERSSGDIGDSYVSWYQQHLGRPPINVIYADDQRPSEVSDRFSGSIDSSSNSASLTITNLQMDDEADYFCQSYDINIDIVFGGGTKLTVL
Turning to B8, in assay [5], the “huPDGF-BB Neutralization Potency (nM)” value came out at 1.84 nM.

B9: chBDI-5H1 half-body (antibody, V domains shown)
VH: QVTLKESGPGILQPSQTLSLTCTFSGFSLSTFGMGVGWIRQPSGKGLEWLANIWWDDDKYYNPSLKNRLTISKDTSNSQAFLEITNVDTADTATYYCARISTGISSYYVMDAWGQGASVTVSS
VL: QFTLTQPKSVSGSLRSTITIPCERSSGDIGDTYVSWYQQHLGRPPINVIYGNDQRPSEVSDRFSGSIDSSSNSASLTITNLQMDDEADYFCQSYDSDIDIVFGGGTKLTVL
As to B9, in assay [5], the “huPDGF-BB Neutralization Potency (nM)” value was greater than 10 nM.

B10: chBFU-3E2 half-body (antibody, V domains shown)
VH: EVQLQQSGPELQRPGASVKLSCKASGYTFTESYMYWVKQRPEQSLELIGRIDPEDGSTDYVEKFKNKATLTADTSSNTAYMQLSSLTSEDSATYFCARFGARSYFYPMDAWGQGTSVTVSS
VL: DTVLTQPPALAVSPGERVSISCRASESVSTLMHWYQQKPGQQPRLLIYGASNLESGVPARFSGSGSGTDFTLTIDPVEADDTATYFCQQSWNDPWTFGGGTKLELK
Consider B10, for which, in assay [5], the “huPDGF-BB Neutralization Potency (nM)” value is 2.49 nM.

B11: chBFU-11A8 half-body (antibody, V domains shown)
VH: EVQLQQSGPELQRPGASVKLSCKASGYTFTESYIYWVKQRPEQSLELIGRIDPEDGSTDYVEKFKNKATLTADTSSNTAYMQLSSLTSEDTATYFCARFGARSYFYPMDAWGQGTSVTVSS
VL: DTVLTQSPTLAVSPGERVSIPCRASESVSTLMHWYQQKPGQQPRLLIYGASNLESGVPARFSGSGSGTDFTLTIDPVEADDTATYFCQQSWNDPWTFGGGTKLELK
Turning to B11, the “huPDGF-BB Neutralization Potency (nM)” value in assay [5] was greater than 10 nM.

The values above are taken from patent publication US20170015742A1 (published 2017).
